Source: patent US20210196796A1 (SYNTHEKINE, published 2021)
Positions count from the first letter of the chain named. Numbers in names are those of the source.

T1: orthogonal hCD122 receptor (hoRb), hCD122 with H133D and Y134F (human, UniProt P14784 27-550)
T1 sequence: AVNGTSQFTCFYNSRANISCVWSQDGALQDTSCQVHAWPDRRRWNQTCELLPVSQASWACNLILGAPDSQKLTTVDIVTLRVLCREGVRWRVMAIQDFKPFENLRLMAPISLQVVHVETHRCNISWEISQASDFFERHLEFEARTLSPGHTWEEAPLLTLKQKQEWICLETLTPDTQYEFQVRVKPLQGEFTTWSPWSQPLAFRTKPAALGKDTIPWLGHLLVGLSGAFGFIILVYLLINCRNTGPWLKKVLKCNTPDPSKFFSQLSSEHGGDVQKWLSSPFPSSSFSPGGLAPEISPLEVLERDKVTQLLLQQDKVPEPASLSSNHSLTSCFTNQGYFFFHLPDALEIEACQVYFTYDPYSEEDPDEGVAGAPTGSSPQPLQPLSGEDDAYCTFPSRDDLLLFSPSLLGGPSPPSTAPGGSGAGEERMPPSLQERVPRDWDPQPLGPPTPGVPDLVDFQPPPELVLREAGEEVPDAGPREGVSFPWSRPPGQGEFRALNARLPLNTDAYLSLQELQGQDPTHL

B1: Q126M, SQVLKA (ligand)
chain: APTSSSTKKTQLQLSQLLVLLKAILNGINNYKNPKLTRMLTFKFYMPKKATELKHLQCLEEELKPLEEVLNLAQSKNFHLRPRDLISNINVIVLELKGSETTFMCEYADETATIVEFLNRWITFCMSIISTLT
B2: Q126C, SQVLKA (ligand)
chain: B1 chain with M126C
B3: Q126I, SQVLKA (ligand)
chain: B1 chain with M126I
B4: KQVLKA (ligand)
chain: B1 chain with S15K, M126Q
B5: Q126R, SQVLKA (ligand)
chain: B1 chain with M126R
B6: Q126T, SQVLKA (ligand)
chain: B1 chain with M126T
B7: Q126G, SQVLKA (ligand)
chain: B1 chain with M126G
B8: L14W, SQVLKA (ligand)
chain: B1 chain with L14W, M126Q
B9: TQVLKA (ligand)
chain: B1 chain with S15T, M126Q
B10: Q126E, SQVLKA (ligand)
chain: B1 chain with M126E
B11: Q126D, SQVLKA (ligand)
chain: B1 chain with M126D
B12: Q126K, SQVLKA (ligand)
chain: B1 chain with M126K
B13: Q126S, SQVLKA (ligand)
chain: B1 chain with M126S
B14: ΔH16, S_VLKA (ligand)
chain: APTSSSTKKTQLQLSLLVLLKAILNGINNYKNPKLTRMLTFKFYMPKKATELKHLQCLEEELKPLEEVLNLAQSKNFHLRPRDLISNINVIVLELKGSETTFMCEYADETATIVEFLNRWITFCQSIISTLT

These binders were tested against T1, orthogonal hCD122 receptor (hoRb), … (assay: cell-based or functional assay).
For Relative Proliferation Fold Change 3F8 1:10 in this document: reference of the scale not given here.
For Relative Proliferation Fold Change 3F8 1:2 in this document: reference of the scale not given here.
For Relative Proliferation Fold Change 3F8 1:50 in this document: reference of the scale not given here.
For Relative Proliferation Fold Change NKL 1:10 in this document: reference of the scale not given here.
For Relative Proliferation Fold Change NKL 1:2 in this document: reference of the scale not given here.
For Relative Proliferation Fold Change NKL 1:50 in this document: reference of the scale not given here.

Row | Binder | NKL Ortho Proliferation Signal 1:2 | NKL Ortho Proliferation Signal 1:10 | NKL Ortho Proliferation Signal 1:50 | Relative Proliferation Fold Change NKL 1:2 [fold] | Relative Proliferation Fold Change NKL 1:10 [fold] | Relative Proliferation Fold Change NKL 1:50 [fold]
1 | B1 | 19800 | 18700 | 9760 | 2 | 1.29 | 0.74
2 | B2 | 6560 | 8210 | 7200 | 0.44 | 0.53 | 0.49
3 | B3 | 40000 | 35600 | 16700 | 3.78 | 2.5 | 1.25
4 | B4 | 71200 | 67600 | 38900 | 5.12 | 4.36 | 2.63
5 | B5 | 13900 | 9670 | 6650 | 1.18 | 0.75 | 0.57
6 | B6 | 5980 | 6750 | 5180 | 0.44 | 0.47 | 0.41
7 | B7 | 5740 | 7220 | 6050 | 0.45 | 0.49 | 0.45
8 | B8 | 50300 | 45100 | 20900 | 4.04 | 2.83 | 1.39
9 | B9 | 50400 | 57900 | 27800 | 3.46 | 3.31 | 1.75
10 | B10 | 10600 | 8600 | 6800 | 1.01 | 0.68 | 0.55
11 | B11 | 4640 | 7560 | 6380 | 0.39 | 0.49 | 0.46
12 | B12 | 6510 | 7930 | 6980 | 0.54 | 0.56 | 0.53
13 | B13 | 9460 | 7880 | 6310 | 0.71 | 0.57 | 0.5
14 | B14 | 20900 | 14200 | 9760 | 1.32 | 0.84 | 0.62

Target: T1, orthogonal hCD122 receptor (hoRb), …
Assay: cell-based or functional assay
Remark: another data set of the same source

Row | Binder | 3F8 Ortho Proliferation Signal 1:2 [cts/min] | 3F8 Ortho Proliferation Signal 1:10 [cts/min] | 3F8 Ortho Proliferation Signal 1:50 [cts/min] | Relative Proliferation Fold Change 3F8 1:2 [fold] | Relative Proliferation Fold Change 3F8 1:10 [fold] | Relative Proliferation Fold Change 3F8 1:50 [fold]
15 | B1 | 33100 | 33200 | 17100 | 154 | 55.6 | 31.8
16 | B2 | 452 | 574 | 748 | 2.28 | 0.68 | 1.4
17 | B3 | 27400 | 27000 | 9510 | 30 | 11.3 | 8.69
18 | B4 | 35200 | 36800 | 24000 | 4.86 | 3.88 | 23
19 | B5 | 22400 | 18100 | 3710 | 0.49 | 1.44 | 1.37
20 | B6 | 3380 | 1880 | 1320 | 0.28 | 0.54 | 1.92
21 | B7 | 1540 | 1100 | 838 | 7.05 | 2.14 | 1.14
22 | B8 | 35300 | 36000 | 13600 | 66.2 | 31.8 | 16.5
23 | B9 | 29100 | 35900 | 17000 | 2.6 | 16 | 8.69
24 | B10 | 21000 | 14600 | 2660 | 129 | 33.6 | 6.4
25 | B11 | 294 | 368 | 544 | 0.63 | 0.4 | 0.61
26 | B12 | 2720 | 2490 | 964 | 9.18 | 7.29 | 1.51
27 | B13 | 9540 | 2870 | 826 | 19.3 | 3.69 | 1.6
28 | B14 | 2360 | 4420 | 1670 | 3.49 | 1.68 | 1.33
